Numbering of substitutions follows the chain as printed. Read-outs that look alike come from different tables or passages of the source.

Assay [1] deals with human CD73 on SK-OV-3 cells (human ovarian adenocarcinoma cells) (human) (UniProt P21589). Kind of assay: flow cytometry on SK-OV-3 cells.
The target is the same in assay [2]. Kind of assay: flow cytometry on SK-OV-3 cells, anti-hFc-APC.
The target is the same in assay [3]. Put plainly: flow cytometry on SK-OV-3 cells. The source holds these as a separate data set.
Assay [4] has the same target. Kind of assay: flow cytometry on SK-OV-3 cells. The source holds these as a separate data set.
Assay [5] shares this target. Kind of assay: flow cytometry on SK-OV-3 cells, anti-hFc-APC. This is another data set of the same source.
The target of assay [6] is monkey CD73 on CHOK1-cynoCD73 cells (monkey). Kind of assay: flow cytometry on CHOK1-cynoCD73 cells.
The target in assay [7] is human CD73 on SK-OV-3 cells (human ovarian adenocarcinoma cells) (human) (UniProt P21589). Put plainly: flow cytometry on SK-OV-3 cells, anti-hFc-APC. This is another data set of the same source.
Assay [8] addresses T1, monkey CD73 on CHOK1-cynoCD73 cells (monkey, UniProt A0A2K5V5U7 27-549, GPI anchor at the C-terminus of the mature chain (paragraph 3 says CD73 is GPI-anchored). The propeptide 550-574 is removed.).
T1 construct: also called CHOK1-cyno73 cells; monkey CD73 positive cells
T1 sequence: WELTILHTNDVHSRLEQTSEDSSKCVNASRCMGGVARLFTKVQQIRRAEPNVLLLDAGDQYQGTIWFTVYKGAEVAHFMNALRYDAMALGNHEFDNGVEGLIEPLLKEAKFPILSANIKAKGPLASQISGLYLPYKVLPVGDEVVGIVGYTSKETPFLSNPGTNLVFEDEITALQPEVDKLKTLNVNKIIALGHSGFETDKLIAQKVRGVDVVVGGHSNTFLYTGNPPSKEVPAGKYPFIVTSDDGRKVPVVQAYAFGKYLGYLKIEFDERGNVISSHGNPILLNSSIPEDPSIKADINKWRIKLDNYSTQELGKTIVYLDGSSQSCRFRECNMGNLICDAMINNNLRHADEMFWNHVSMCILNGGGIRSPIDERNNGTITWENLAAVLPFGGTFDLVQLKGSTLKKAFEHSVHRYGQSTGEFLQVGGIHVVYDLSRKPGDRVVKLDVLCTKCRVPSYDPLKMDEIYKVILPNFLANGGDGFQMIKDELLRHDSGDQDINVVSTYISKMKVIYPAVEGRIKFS
Put plainly: flow cytometry on CHOK1-cynoCD73 cells. On the procedure: The full length of monkey CD73 was constructed on a eukaryotic expression vector containing NEO resistance, CHO-K1 cells were transfected, G418 was used for screening to obtain a CHOK1-cynoCD73 cell strain. 4×10⁵ CHOK1-cynoCD73 cells were taken and a gradient diluted CQ137 protein was added, after incubation was performed for 1 h, the cells were washed with PBS for three times, […] (purchased from Jackson Immunology) was added, and detected by flow cytometry.

In assay [9] the target is T1, monkey CD73 on CHOK1-cynoCD73 cells. Put plainly: cell-based or functional assay.
Assay [10] concerns the target T2, human CD73 on SK-OV-3 cells (human ovarian adenocarcinoma cells) (human, UniProt P21589 27-549).
T2 sequence (looked up): T1 sequence with T199M, A350T, I466V
Kind of assay: cell-based or functional assay.

The target in assay [11] is T3, recombinant monkey CD73 protein (monkey, UniProt A0A2K5V5U7 27-549).
T3 construct: Monkey species not further named for the recombinant protein (the cell line is called cynoCD73)
T3 sequence: T1 sequence
Put plainly: ELISA, plate coated with recombinant monkey CD73 at 3 µg/mL. The method, then:
(§1) The recombinant monkey CD73 protein was packaged in plates according to a 3 μg/mL and a gradient diluted CQ137 was added.

For assay [12], the target named is T3, recombinant monkey CD73 protein. Put plainly: ELISA, recombinant monkey CD73 coated at 3 ug/mL. On the procedure: as §1
Assay [13] addresses T4, recombinant human CD73 protein (human, UniProt P21589 27-547, limits assumed).
T4 construct: Bought recombinant protein; the assays only say recombinant human CD73; also called rhCD73; recombinant hCD73 protein
T4 sequence (looked up): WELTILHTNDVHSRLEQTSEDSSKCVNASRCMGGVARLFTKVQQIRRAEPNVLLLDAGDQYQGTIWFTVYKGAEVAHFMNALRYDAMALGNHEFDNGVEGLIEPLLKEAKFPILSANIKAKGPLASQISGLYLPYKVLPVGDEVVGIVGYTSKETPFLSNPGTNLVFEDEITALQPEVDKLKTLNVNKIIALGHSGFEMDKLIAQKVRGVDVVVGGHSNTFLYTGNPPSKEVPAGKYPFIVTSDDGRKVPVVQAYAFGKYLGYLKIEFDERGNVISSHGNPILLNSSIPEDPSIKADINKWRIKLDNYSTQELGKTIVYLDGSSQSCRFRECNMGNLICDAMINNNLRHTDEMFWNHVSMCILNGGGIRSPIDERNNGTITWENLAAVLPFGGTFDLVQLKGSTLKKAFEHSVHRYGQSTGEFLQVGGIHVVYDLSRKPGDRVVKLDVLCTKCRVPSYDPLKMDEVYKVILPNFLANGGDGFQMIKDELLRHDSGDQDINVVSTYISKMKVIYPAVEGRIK
Kind of assay: Biacore (SPR), CQ137 immobilised, CD73 protein 2.5 nM-40 nM. The method, then: The affinity of CQ137 to recombinant hCD73 protein was determined by Biacore, CQ137 was cured.

The target of assay [14] is T2, human CD73 on SK-OV-3 cells (human …). Put plainly: flow cytometry on SK-OV-3 cells. On the procedure: 4×10⁵ cells SK-OV-3 were taken, triple gradient (0.009-20 μg/ml) dilution of CQ137 protein was added, incubated for 1 h, washed three times with PBS, Anti-hFC-APC (purchased from Jackson immunology) was added, and detected by flow cytometry.

Turning to “MEDI-9447 of AstraZeneca(AZ)/Medimmune (antibody)”, the half-maximal effective concentration (EC50) in assay [1] turned out to be 33.6 ng/mL; in assay [3], 23500 ng/mL; in assay [4] it was 9.63 ng/mL; in [6] it was 4.12 ng/mL. Also, the EC50 (read off the curve) in assay [2] was 20 ng/mL; in assay [5] it was 30 ng/mL; in [6], 2 ng/mL; in assay [7] it was 100 ng/mL.

B1: CQ137 antibody protein (human mouse chimeric anti-CD73 full-length antibody) (antibody, human IgG1, kappa, V domains shown)
VH: EVQLQQSGPELVKPGASVKISCKASGYSFTGYYIHWVKQSHVKSLEWIGRINPYNGATTYNQNFKDKASLTVDKSSSTAYMELHSLTSEDSAVYYCARFHYGAPDYWGQGTTLTVSS
VL: DILMTQSPSSMYASLGERVTITCKASQDINTYLTWFQQKPGKSPKTLIYRANILVDGVPSRFSGSGSGQDYSLTISSLEFEDMGIYYCLQYDEFPLTFGAGTKLELKR
In turn, B1 displayed a half-maximal effective concentration (EC50) in [8] of 0.0999 ng/mL. Also, the “IC50 of inhibition of CD73 enzyme activity on CHOK1-cynoCD73 cells” value in [9] is 990 ng/mL. The “IC50 of inhibition of CD73 enzyme activity on SK-OV-3 cells” value in [10] was found to be 371 ng/mL. For the same molecule, the EC50 in assay [11] was found to be 217 ng/mL. The concentration giving a half-maximal response (EC50 (read off the curve)) in assay [12] is ~200 ng/mL. In assay [13], the Kd is 86.5 pM, the dissociation rate constant (koff) amounted to 6.04e-05 s⁻¹ and the association rate constant (kon) was 698000 M⁻¹ s⁻¹. Moreover, the concentration giving a half-maximal response (EC50) in [14] was 0.588 ng/mL.

The values are drawn from patent US20240174763A1 (NOVOPROTEIN SCIENTIFIC, published 2024).
